Measurements taken from article PMC8980629, “c-Abl kinase-mediated phosphorylation of γ-tubulin promotes γ-tubulin ring complexes assembly and microtubule nucleation” (The Journal of Biological Chemistry, 2022).

Molecular target: T1, Flag-γ-tubulin (human, UniProt P23258 1-451)
T1 construct: γ-tubulin (tubg1), full-length cDNA amplified from an MCF-7 cDNA library, in a pcDNA3.0-based vector; also called wild-type Flag-γ-tubulin; source: HEK293T, transfected, in lysate; anti-Flag immunoprecipitated and resolved by SDS-PAGE for the far-Western; not shown: Flag, N-terminal, kept
Experiment: far-Western, overlay or dot blot; anti-Flag immunoprecipitates from HEK293T resolved by SDS-PAGE and blotted onto PVDF; membrane incubated with purified GST or GST fusion protein 2 h at room temperature; probed with anti-GST
Settings: both partners purified

T1 sequence (P23258 whole entry): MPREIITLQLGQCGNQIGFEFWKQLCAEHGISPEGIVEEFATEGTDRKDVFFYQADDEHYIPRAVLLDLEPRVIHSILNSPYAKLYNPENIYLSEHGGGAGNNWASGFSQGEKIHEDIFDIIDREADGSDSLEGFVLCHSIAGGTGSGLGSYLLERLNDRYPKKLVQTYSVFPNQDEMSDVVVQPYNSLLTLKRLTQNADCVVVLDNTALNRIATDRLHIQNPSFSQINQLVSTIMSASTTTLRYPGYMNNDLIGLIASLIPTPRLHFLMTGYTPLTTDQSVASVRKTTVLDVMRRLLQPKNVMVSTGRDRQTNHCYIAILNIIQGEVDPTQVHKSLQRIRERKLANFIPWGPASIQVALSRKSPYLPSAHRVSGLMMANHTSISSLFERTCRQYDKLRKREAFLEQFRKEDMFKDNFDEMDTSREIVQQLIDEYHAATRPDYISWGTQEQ

binding result: binds
B1: GST-c-Abl SH2 (domain or fragment, UniProt P00519 127-217, looked up)
chain: WYHGPVSRNAAEYLLSSGINGSFLVRESESSPGQRSISLRYEGRVYHYRINTASDGKLYVSSESRFNTLAELVHHHSTVADGLITTLHYPA
notes: SH2 domain of c-Abl; source: purified GST fusion protein; not shown: GST, N-terminal, kept
